We go through six molecules from patent US20150184159A1, “USE OF COX-3 BINDING MOLECULES FOR MODULATING AUTOPHAGY” (priority 2013, published 2015).

In assay [1] the target is T1, canine COX-3 (Canis lupus familiaris, UniProt Q8HZR1).
T1 sequence (Q8HZR1 1-633 isoform Q8HZR1-2): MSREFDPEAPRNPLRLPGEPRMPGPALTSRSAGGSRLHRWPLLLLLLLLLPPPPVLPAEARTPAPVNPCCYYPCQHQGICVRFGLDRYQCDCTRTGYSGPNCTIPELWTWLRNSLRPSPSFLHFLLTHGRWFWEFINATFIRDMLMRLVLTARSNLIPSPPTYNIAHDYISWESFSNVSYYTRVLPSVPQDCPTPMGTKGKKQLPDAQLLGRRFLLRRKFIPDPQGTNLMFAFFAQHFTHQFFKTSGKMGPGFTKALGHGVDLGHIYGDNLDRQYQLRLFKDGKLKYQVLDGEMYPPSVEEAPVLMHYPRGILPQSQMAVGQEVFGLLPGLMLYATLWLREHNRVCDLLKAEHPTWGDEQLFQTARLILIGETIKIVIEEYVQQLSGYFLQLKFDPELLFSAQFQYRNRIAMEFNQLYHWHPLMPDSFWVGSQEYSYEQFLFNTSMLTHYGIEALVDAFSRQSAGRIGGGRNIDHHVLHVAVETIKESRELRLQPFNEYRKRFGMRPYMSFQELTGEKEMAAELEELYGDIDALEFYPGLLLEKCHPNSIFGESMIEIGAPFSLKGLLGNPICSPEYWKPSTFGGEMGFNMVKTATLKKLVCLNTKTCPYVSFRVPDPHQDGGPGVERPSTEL
The following applies: cited from earlier work.

Assay [2] addresses C-terminal RFP labeled ATG9.
The subject of assay [3] is encephalomyocarditis virus (EMCV). Nature of the assay: EMCV replication in transfected CHO cells, plaque-forming assay. It is filed as cell-based. The following applies: compared to Empty vector. The source says: The rCOX constructs being related to ancient unicellular COX and evidence showing their involvement in the formation of innate immune responsive autophagic structures. EMCV is a positive strand RNA picornavirus implicated in human febrile illness. Also, the mTOR small molecule inhibitor rapamycin is shown to stimulate protein synthesis of EMCV proteins (Ref) and that autophagy specifically is shown to promote EMCV viral replication. We infected rCOX or/and cNuc transfected/co-transfected CHO cells with EMCV to determine their influence in viral replication. The media was collected and plaque forming assays were then performed and plaques were counted compared to Empty vector plaque counts.
CHO cells were seeded to the night before infection to complete confluence. Cells were washed twice with DMEM F/12 media before infection. Virus were placed on top of cells and allowed to absorb for 1 hour angling the cells every 10 minutes to ensure cells were fully covered. After adsorption the media was remove and cells washed twice with DMEM F/12 media. Agar at 2% in PBS was melted and mixed with warm DMEM/F12 with 20% FBS and then laid on top of the cells. The virus was allowed to replicate for 36 hours and then 5 mg/mL of MTT in PBS was added to visualize the cells. Plaques were counted using light microscope.

As for `CC(=O)Nc1ccc(O)cc1` [acetaminophen], the “effect on canine COX-3” value in assay [1] is given as “specifically inhibited”.

For “FLAG tagged rc44 (translationally recoded rat COX-3 44 kD protein) (from UniProt Q63921) (enzyme)”, the co-localisation by confocal microscopy (Pearson coefficient) (Pearson coefficient) in assay [2] stood at 0.928.

In the case of “FLAG tagged rc50 (translationally recoded rat COX-3 50 kD protein) (from UniProt Q63921) (enzyme)”, the co-localisation by confocal microscopy (Pearson coefficient) (Pearson coefficient) in assay [2] is 0.954.

“FLAG tagged rc57 (translationally recoded rat COX-3 57 kD protein) (from UniProt Q63921) (enzyme)” displayed a co-localisation by confocal microscopy (Pearson coefficient) (Pearson coefficient) in assay [2] of 0.973.

B1: r44: translationally recoded 44 kD rat COX-3 protein, expressed by transfection in CHO cells (protein)
chain: MGPGFTKALGHGVDLGHIYGDSLERQYHLRLFKDGKLKYQVLDGEVYPPSVEQASVLMRYPPGVPPEKQMAVGQEVFGLLPGLMLFSTIWLREHNRVCDLLKEEHPTWDDEQLFQTTRLILIGETIKIIIEEYVQHLSGYFLQLKFDPELLFRAQFQYRNRIALEFNHLYHWHPLMPDSFQVGSQEYSYEQFLFNTSMLVDYGVEALVDAFSRQRAGRIGGGRNFDYHVLHVAEDVIKESREMRLQSFNEYRKRFGLKPYTSFQEFTGEKEMAAELEELYGDIDALEFYPGLMLEKCQPNSLFGESMIEMGAPFSLKGLLGNPICSPEYWKPSTFGGDVGFNIVNTASLKKLVCLNTKTCPYVSFRVPDYPGDDGSVFVRPSTEL
For the molecule B1, in assay [3], the “number of EMCV virions” value is reported as “doubled”.

B2: r57: translationally recoded 57 kD rat COX-3 protein, expressed by transfection in CHO cells (protein)
chain: MRLVITVRSNLIPSPPTYNTAHDYISWESFSNVSYYTRILPSVPKDCPTPMGTKGKKQLPDIHLLAQRLLLRREFIPGPQGTNVLFAFFAQHFTHQFFKTSGKMGPGFTKALGHGVDLGHIYGDSLERQYHLRLFKDGKLKYQVLDGEVYPPSVEQASVLMRYPPGVPPEKQMAVGQEVFGLLPGLMLFSTIWLREHNRVCDLLKEEHPTWDDEQLFQTTRLILIGETIKIIIEEYVQHLSGYFLQLKFDPELLFRAQFQYRNRIALEFNHLYHWHPLMPDSFQVGSQEYSYEQFLFNTSMLVDYGVEALVDAFSRQRAGRIGGGRNFDYHVLHVAEDVIKESREMRLQSFNEYRKRFGLKPYTSFQEFTGEKEMAAELEELYGDIDALEFYPGLMLEKCQPNSLFGESMIEMGAPFSLKGLLGNPICSPEYWKPSTFGGDVGFNIVNTASLKKLVCLNTKTCPYVSFRVPDYPGDDGSVFVRPSTEL
B2: in assay [3], the “inhibition of virion production” value is given as 40%.
